{
  "source": "patent US20080213836",
  "key": {"[1]": {"biological_target": "T1, Boc-Glu(OBzl)-Ala-Arg-MCA", "T1 chain": "EAR"}, "[2]": {"biological_target": "D4K-cleavage site-containing control protein (Novagen)"}, "[3]": {"biological_target": "T2, Gly-Asp-Asp-Asp-Asp-Lys-β-naphthylamide", "T2 chain": "GDDDDK"}, "[4]": {"biological_target": "Human plasma fibronectin, P02751", "sequence (P02751 other isoform, or with tags, fused parts or gaps)": "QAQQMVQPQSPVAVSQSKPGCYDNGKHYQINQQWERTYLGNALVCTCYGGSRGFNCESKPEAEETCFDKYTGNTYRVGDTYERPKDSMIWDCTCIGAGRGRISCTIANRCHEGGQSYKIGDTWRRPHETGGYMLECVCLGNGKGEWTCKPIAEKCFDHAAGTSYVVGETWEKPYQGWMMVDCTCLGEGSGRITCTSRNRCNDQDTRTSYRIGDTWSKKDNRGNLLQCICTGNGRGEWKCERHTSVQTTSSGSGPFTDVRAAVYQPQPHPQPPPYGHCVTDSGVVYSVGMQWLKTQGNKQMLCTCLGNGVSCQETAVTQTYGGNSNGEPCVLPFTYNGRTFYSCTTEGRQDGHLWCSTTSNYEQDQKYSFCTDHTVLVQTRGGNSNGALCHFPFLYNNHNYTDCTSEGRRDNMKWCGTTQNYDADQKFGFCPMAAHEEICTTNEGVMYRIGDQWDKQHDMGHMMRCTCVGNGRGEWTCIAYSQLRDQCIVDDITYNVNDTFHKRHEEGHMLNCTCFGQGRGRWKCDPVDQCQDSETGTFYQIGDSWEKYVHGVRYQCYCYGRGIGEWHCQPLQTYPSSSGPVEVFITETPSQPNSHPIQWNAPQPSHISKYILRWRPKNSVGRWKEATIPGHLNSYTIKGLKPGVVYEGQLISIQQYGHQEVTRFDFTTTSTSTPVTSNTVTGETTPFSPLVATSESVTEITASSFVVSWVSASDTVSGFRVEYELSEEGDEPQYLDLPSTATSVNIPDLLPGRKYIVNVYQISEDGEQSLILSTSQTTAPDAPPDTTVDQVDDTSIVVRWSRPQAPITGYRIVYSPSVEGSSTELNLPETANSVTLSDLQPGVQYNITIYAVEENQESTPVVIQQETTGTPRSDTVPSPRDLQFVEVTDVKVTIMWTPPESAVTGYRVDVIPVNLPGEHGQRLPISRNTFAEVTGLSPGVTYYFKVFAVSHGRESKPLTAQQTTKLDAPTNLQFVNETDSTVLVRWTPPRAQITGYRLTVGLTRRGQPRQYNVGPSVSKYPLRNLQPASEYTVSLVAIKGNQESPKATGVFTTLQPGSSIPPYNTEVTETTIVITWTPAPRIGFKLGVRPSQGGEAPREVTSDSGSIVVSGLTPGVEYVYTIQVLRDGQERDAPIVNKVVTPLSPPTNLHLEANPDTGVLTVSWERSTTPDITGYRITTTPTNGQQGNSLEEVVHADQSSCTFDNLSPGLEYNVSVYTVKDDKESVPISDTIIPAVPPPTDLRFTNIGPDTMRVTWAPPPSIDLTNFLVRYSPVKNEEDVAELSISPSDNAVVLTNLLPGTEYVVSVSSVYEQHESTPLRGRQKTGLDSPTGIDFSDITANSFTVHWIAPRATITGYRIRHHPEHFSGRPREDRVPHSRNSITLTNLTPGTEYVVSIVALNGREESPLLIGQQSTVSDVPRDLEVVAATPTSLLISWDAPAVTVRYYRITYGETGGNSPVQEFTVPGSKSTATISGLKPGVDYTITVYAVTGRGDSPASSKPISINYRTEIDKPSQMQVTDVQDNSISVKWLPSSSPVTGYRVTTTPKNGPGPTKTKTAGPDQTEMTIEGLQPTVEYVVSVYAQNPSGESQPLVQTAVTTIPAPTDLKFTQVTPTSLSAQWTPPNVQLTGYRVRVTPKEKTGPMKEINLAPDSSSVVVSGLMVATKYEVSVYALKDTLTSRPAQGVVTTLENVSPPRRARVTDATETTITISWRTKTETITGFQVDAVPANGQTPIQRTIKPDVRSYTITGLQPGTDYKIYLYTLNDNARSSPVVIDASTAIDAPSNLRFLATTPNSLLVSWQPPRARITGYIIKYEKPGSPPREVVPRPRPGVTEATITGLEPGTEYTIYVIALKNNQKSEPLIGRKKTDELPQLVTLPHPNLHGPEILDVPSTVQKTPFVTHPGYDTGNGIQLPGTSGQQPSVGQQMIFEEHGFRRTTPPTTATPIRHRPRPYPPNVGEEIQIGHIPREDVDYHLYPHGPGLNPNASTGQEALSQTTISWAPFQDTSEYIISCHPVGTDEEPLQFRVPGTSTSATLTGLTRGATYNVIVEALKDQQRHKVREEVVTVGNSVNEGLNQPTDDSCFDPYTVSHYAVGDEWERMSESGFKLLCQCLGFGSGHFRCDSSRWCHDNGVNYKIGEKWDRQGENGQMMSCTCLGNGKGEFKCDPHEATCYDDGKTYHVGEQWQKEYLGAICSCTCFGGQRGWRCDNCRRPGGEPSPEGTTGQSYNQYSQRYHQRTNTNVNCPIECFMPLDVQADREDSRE"}, "Pro-Phe-Arg-MCA": {"biological_target": "T3, Pro-Phe-Arg-MCA", "T3 chain": "PFR"}, "Z-Phe-Arg-MCA": {"biological_target": "T4, Z-Phe-Arg-MCA", "T4 chain": "FR"}, "human fibrinogen, P02671": {"biological_target": "T5, human fibrinogen, P02671", "T5 chain 1": "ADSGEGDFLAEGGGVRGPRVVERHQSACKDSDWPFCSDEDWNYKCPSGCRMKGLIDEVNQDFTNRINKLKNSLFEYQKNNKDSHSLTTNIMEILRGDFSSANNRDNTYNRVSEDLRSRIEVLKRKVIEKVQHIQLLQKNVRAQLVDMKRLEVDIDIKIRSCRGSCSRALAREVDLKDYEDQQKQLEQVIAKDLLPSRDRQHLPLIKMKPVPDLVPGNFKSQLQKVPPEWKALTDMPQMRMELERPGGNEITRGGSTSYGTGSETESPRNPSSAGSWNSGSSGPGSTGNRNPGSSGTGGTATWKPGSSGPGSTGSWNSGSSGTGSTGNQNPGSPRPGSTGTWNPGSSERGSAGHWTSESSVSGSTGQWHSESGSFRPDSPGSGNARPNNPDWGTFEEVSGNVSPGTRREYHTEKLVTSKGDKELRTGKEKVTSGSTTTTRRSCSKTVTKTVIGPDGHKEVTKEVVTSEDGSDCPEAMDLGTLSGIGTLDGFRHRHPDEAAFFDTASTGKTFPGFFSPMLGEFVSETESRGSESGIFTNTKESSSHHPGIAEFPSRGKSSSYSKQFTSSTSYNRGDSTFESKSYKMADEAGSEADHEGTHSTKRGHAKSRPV", "T5 chain 2": "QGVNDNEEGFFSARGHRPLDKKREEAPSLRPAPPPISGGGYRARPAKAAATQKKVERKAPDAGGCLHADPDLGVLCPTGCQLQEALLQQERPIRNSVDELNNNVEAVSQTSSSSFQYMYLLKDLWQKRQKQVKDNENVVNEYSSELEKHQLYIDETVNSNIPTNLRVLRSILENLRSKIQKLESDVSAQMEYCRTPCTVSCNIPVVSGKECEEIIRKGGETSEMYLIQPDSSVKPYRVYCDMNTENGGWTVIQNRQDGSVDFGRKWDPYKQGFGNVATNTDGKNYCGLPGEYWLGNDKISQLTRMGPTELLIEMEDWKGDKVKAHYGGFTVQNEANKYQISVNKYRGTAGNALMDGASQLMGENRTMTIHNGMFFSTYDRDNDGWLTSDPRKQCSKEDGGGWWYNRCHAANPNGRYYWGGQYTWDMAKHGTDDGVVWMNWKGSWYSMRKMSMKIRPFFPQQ", "T5 chain 3": "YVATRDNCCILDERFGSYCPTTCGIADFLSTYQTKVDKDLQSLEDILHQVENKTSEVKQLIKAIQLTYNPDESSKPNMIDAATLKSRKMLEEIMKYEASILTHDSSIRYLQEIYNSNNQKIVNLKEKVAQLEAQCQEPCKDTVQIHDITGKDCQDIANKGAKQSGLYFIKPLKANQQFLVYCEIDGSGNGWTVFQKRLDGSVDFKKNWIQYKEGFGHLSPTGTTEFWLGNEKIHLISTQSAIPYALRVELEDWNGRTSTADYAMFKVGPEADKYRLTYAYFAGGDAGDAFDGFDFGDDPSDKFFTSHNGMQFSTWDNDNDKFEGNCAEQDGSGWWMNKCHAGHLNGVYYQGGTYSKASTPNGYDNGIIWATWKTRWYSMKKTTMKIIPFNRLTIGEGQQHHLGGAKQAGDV"}, "[5]": {"biological_target": "T6, human high-molecular-weight (HMW) kininogen, P01042", "T6 chain": "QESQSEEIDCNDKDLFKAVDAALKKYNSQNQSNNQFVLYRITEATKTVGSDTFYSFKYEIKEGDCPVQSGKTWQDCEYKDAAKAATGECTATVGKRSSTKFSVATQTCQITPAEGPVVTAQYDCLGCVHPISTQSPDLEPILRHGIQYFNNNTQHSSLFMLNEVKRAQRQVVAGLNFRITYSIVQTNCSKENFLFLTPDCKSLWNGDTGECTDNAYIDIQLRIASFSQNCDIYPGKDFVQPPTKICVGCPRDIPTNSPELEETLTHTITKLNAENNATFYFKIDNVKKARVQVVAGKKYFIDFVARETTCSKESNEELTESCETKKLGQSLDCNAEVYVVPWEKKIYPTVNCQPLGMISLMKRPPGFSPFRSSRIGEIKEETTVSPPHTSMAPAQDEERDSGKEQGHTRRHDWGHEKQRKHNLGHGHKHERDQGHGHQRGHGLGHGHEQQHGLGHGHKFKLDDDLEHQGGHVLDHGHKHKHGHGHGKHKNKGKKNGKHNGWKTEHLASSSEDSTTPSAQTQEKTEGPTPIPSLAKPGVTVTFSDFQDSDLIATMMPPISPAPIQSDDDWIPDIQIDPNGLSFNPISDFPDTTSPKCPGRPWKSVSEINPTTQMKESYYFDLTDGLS"}, "[6]": {"biological_target": "human single-chain tPA fusion protein with N-terminal His-tag/EP-cleavage site, P00750", "sequence (P00750 whole entry, looked up, the tested form may be a part)": "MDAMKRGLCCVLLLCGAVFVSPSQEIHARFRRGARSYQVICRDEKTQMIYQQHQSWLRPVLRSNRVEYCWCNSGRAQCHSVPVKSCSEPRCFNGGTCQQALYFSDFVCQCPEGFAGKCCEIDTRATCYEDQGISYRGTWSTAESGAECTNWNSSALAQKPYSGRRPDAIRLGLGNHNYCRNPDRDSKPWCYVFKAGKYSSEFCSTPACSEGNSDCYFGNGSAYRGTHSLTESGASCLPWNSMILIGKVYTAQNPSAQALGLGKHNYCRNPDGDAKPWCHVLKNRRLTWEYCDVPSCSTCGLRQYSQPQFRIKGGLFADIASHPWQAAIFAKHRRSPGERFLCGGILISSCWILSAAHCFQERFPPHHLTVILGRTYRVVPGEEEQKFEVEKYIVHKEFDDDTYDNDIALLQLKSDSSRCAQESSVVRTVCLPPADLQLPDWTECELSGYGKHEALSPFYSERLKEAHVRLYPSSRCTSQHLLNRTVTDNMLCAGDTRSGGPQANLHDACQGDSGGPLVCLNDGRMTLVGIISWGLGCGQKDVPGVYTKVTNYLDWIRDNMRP"}, "[7]": {"biological_target": "recombinant fusion protein of Medaka gelatinase A"}, "[8]": {"biological_target": "T7, recombinant fusion protein of human kallikrein 8 (hK8), O60259", "T7 sequence (O60259 whole entry, looked up)": "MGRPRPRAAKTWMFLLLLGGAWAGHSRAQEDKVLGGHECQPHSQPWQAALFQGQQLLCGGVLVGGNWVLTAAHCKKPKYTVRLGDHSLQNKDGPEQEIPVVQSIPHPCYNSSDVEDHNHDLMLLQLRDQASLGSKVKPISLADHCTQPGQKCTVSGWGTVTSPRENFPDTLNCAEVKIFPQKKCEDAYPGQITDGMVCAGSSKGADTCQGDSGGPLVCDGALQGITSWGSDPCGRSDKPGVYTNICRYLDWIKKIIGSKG"}},
  "data": [
    {"protein": "porcine EP serine protease domain (Ile800 to His1034) (protein) IVGGNDSREGAWPWVVALYYNGQLLCGASLVSRDWLVSAAHCVYGRNLEPSKWKAILGLHMTSNLTSPQIVTRLIDEIVINPHYNRRRKDSDIAMMHLEFKVNYTDYIQPICLPEENQVFPPGRICSIAGWGKVIYQGSPADILQEADVPLLSNEKCQQQMPEYNITENMMCAGYEEGGIDSCQGDSGGPLMCLENNRWLLAGVTSFGYQCALPNRPGVYARVPKFTEWIQSFLH", "values": [
      {"measurement": "Km", "setting": "[1]", "value": 300, "unit": "µM"},
      {"measurement": "kcat", "setting": "[1]", "value": 1.83, "unit": "s⁻¹"},
      {"measurement": "kcat/Km (mM^-1 · min^-1)", "setting": "[1]", "value": 370},
      {"measurement": "cleavage of the fusion protein (SDS-PAGE)", "setting": "[2]", "value": "the mammalian enzymes not only produced the two expected polypeptides but also further degraded the products"},
      {"measurement": "Km", "setting": "[3]", "value": 400, "unit": "µM"},
      {"measurement": "kcat", "setting": "[3]", "value": 8.83, "unit": "s⁻¹"},
      {"measurement": "kcat/Km (mM^-1 · min^-1)", "setting": "[3]", "value": 1300},
      {"measurement": "proteolytic activity (SDS-PAGE)", "setting": "[4]", "value": "these substrates were detectably hydrolyzed by the mammalian proteases"},
      {"measurement": "Km", "setting": "Pro-Phe-Arg-MCA", "value": 3900, "unit": "µM"},
      {"measurement": "kcat", "setting": "Pro-Phe-Arg-MCA", "value": 5, "unit": "s⁻¹"},
      {"measurement": "kcat/Km (mM^-1 · min^-1)", "setting": "Pro-Phe-Arg-MCA", "value": 77},
      {"measurement": "Km", "setting": "Z-Phe-Arg-MCA", "value": 200, "unit": "µM"},
      {"measurement": "kcat", "setting": "Z-Phe-Arg-MCA", "value": 0.917, "unit": "s⁻¹"},
      {"measurement": "kcat/Km (mM^-1 · min^-1)", "setting": "Z-Phe-Arg-MCA", "value": 280},
      {"measurement": "proteolytic activity (gelatin zymography)", "setting": "gelatin", "value": "these substrates were detectably hydrolyzed by the mammalian proteases"},
      {"measurement": "nonspecific proteolytic activity (SDS-PAGE)", "setting": "human fibrinogen, P02671", "value": "both of which were degraded noticeably by mammalian EP proteases"},
      {"measurement": "nonspecific proteolytic activity (SDS-PAGE)", "setting": "[5]", "value": "both of which were degraded noticeably by mammalian EP proteases"},
      {"measurement": "cleavage of the fusion protein (SDS-PAGE/Western blot)", "setting": "[6]", "value": "but not with mammalian ones, showed two polypeptides (53- and 55-kDa)"},
      {"measurement": "proteolytic activity (SDS-PAGE)", "setting": "mouse laminin", "value": "these substrates were detectably hydrolyzed by the mammalian proteases"},
      {"measurement": "cleavage of the fusion protein (SDS-PAGE)", "setting": "[7]", "value": "the fusion protein was extensively digested by mammalian EP serine proteases"},
      {"measurement": "cleavage of the fusion protein (SDS-PAGE)", "setting": "[8]", "value": "the porcine protease extensively degraded the substrate"}
    ]}
  ]
}
